We go through three molecules from US20110105397A1, “METHOD FOR TREATING HEART FAILURE WITH STRESSCOPIN-LIKE PEPTIDES” (priority 2009, published 2011).

Experiment [1] addresses T1, human corticotrophin releasing hormone receptor type 2 (CRHR2) (human) (UniProt Q13324).
T1 sequence (looked up): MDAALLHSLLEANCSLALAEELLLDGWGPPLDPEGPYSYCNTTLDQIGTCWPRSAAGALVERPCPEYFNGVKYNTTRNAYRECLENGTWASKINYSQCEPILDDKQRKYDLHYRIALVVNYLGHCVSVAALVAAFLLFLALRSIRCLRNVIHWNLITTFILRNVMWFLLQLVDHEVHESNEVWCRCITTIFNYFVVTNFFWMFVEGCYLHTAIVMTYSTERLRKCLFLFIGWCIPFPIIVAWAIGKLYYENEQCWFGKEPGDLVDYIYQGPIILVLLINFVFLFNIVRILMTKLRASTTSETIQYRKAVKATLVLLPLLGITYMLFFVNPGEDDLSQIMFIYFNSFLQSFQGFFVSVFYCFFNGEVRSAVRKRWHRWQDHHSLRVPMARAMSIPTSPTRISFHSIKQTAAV
Nature of the experiment: cell-based or functional assay.

Experiment [2] concerns the target T2, human corticotrophin releasing hormone receptor type 1 (CRHR1) (human, UniProt P34998 24-415).
T2 sequence (looked up): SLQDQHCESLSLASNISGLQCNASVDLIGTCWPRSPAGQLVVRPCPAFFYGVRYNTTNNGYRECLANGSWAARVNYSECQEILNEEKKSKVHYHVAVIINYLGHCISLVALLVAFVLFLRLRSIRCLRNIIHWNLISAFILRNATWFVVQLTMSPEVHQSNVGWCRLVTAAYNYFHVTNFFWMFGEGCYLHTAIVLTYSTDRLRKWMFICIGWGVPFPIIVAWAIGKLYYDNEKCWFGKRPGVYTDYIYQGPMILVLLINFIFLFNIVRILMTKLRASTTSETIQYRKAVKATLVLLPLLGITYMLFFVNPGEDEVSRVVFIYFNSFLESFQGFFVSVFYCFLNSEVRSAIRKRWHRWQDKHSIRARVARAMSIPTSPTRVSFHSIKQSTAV
Nature of the experiment: cell-based or functional assay.

The target in experiment [3] is T1, human corticotrophin releasing hormone receptor type 2 (CRHR2) (human). Nature of the experiment: radioligand competition against [125I]-anti-sauvagine-30, CRHR2 membranes.
The target in experiment [4] is T2, human corticotrophin releasing hormone …. Kind of experiment: radioligand competition against [125I]-(Tyr0)-sauvagine, CRHR1 assay, cell membranes. How it is done: Frozen cell pellets were defrosted on ice in 15 ml of assay buffer that was composed of 10 mM HEPES, 130 mM NaCl, 4.7 mM KCl, 5 mM MgCl₂, and 0.089 mM bacitracin at pH 7.2 and 21±3° Celsius. The solution was then homogenized with a Polytron tissue grinder at a setting of 10 and 7×3 s (Brinkmann Instruments, Westbury, N.Y.). The homogenate was centrifuged at 4° Celsius at 800×g for 5 min with the pellet being discarded. The supernatant was re-centrifuged at 26,892×g for 25 min at 4° Celsius with the final pellet being re-suspended in assay buffer. All binding assays were conducted in 96-well Multiscreen GF/B filter plates (Millipore, Billericay, Mass., U.S.A.) that were pre-soaked in assay buffer with 0.3% PEI for 1 hour. […]
The bound radioactivity was separated by filtration using a Multiscreen Resist manifold (Millipore Corp., Billerica, Mass., U.S.A). The filters were washed three times with ice-cold PBS at pH 7.5 and radioactivity retained on the filters was quantified by its liquid scintillation measured by a TopCount counter (Packard BioScience, Boston, Mass., U.S.A). […]
Data from individual competition curves were expressed as the percentage of specific [¹²⁵I]-anti-sauvagine-30 or)[¹²⁵I]-(Tyr⁰-sauvagine binding (B) within each experiment.
A general note: In a radioligand displacement assay an active substance lowers the binding of a labelled ligand.

Experiment [5] deals with T1, human corticotrophin releasing hormone receptor type 2 (CRHR2) (human). Nature of the experiment: radioligand competition against [125I]-anti-sauvagine-30, membranes of SK-N-MC cells with human CRHR2.
For experiment [6] the target is unchanged. Nature of the experiment: cell-based or functional assay. The source holds these as a separate data set.
The target of experiment [7] is T3, human corticotrophin releasing hormone receptor type 2 (CRHR2) (human, UniProt Q13324 1-411).
T3 sequence (looked up): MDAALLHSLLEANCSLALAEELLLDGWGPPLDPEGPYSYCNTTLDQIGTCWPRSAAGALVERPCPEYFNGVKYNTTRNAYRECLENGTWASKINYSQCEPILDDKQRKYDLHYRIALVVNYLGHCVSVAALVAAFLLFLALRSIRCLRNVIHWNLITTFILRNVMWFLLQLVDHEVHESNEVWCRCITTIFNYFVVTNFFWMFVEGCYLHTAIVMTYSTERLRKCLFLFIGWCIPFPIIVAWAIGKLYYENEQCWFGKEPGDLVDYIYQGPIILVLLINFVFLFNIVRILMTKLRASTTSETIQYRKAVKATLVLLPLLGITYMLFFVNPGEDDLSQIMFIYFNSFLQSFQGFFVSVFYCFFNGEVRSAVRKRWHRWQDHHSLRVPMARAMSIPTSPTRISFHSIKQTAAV
Nature of the experiment: cell-based or functional assay.

In experiment [8] the target is T3, human corticotrophin releasing hormone …. Nature of the experiment: cell-based or functional assay. This is another data set of the same source.

Where two headings read alike, the source gives them in different places. Where no end group is shown, it is not given here. A value given as a limit tells only on which side of the number the result lay.

B1: Human stresscopin with amidated C-terminus (peptide)
peptide: TKFTLSLDVPTNIMNLLFNIAKAKNLRAQAAANAHLMAQI-NH2
notes: 40-amino-acid peptide; also called h-SCP
Take B1: in experiment [1], the A50 (concentration required for 50% maximum effect), cAMP stood at 0.4 nM; the control pA50 across assay batches was 9.47 to 9.74 -log10(M); the pA50 was 9.4 -log10(M). Besides, the pA50 in experiment [2] was < 5 -log10(M). Also, the pIC50 (low affinity state) in experiment [3] was 6.6 -log10(M). In addition, the pKI in experiment [4] is 4.6 -log10(M). For the same molecule, the pKI in experiment [5] is 5.71 -log10(M).
With DDPPLSIDLTFHLLRTLLELARTQSQRERAEQNRIIFDSV-NH2 [r-UCN1], the pA50 in experiment [6] is 9.08 -log10(M); in experiment [2], 9.19 -log10(M). The pKI in experiment [5] is 8.51 -log10(M).
On to TKFTLSLDVPTNIMNLLFNIAKAKNLRAQAAANAHLMAQI-OH [non-amidated h-SCP], for which the “fold decrease in potency against the amidated parent peptide, cAMP” value in experiment [7] is roughly 200 fold. In addition, the pA50 in experiment [8] is 7.1 -log10(M).
